The values below come from patent publication US20130289100 (The Research Foundation for the State University of New York, published 2013).

Conditions in all cases: chain copies: 4 (inferred)
The target of data set [1] is T1, GluA2Qflip AMPA receptor subunit (Rattus norvegicus, UniProt P19491-2 P19491-2:22-883). The experiment in a line: competition; open-channel conformation; homologous competition with radiolabeled AF42.
In data set [2] the target is T1, GluA2Qflip AMPA receptor subunit. The experiment in a line: competition; closed-channel conformation; homologous competition with radiolabeled AF42.
For data set [3] the target is unchanged. The experiment in a line: competition; open-channel conformation; homologous competition with radiolabeled AF44.
The target is the same in data set [4]. The experiment in a line: competition; unliganded closed-channel conformation; homologous competition with radiolabeled AF44.

Usually Kd stands for the free concentration of one partner at which half of the binding sites on the other are occupied at equilibrium, for simple one-to-one binding. Higher therefore signals weaker binding.

T1 sequence (P19491 other isoform, or with tags, fused parts or gaps): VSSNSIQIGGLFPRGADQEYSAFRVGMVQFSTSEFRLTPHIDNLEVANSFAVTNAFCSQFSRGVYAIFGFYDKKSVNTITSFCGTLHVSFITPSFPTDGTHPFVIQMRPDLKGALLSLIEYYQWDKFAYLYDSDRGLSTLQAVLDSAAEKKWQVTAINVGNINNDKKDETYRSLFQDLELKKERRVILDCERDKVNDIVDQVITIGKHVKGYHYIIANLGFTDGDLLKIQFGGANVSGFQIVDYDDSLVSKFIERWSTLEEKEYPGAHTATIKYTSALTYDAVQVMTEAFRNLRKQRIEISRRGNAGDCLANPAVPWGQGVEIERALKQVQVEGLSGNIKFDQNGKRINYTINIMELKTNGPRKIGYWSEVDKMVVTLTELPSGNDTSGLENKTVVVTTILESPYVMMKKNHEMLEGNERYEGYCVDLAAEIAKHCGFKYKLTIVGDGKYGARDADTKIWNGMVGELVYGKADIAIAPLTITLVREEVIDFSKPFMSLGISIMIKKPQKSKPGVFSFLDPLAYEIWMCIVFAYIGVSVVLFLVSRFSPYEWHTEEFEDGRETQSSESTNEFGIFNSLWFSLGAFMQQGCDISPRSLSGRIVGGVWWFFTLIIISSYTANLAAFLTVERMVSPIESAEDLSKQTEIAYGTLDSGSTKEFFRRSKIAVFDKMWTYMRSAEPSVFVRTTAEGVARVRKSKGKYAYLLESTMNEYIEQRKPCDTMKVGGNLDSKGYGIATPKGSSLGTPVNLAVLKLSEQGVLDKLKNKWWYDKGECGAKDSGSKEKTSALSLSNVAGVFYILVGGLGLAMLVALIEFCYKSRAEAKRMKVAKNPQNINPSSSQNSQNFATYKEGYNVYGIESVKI

Consider GGGAACGGUGCCAGUCCGAAACGGAUCGUUAGAGCAUCAGUA (ssRNA) [AF42], for which the dissociation constant (Kd) stood at 44 nM in data set [1] and 57 nM in data set [2].
For the molecule GGGAGAAUUCAACUGCCACGGAUAAUAGCCAAUACUACAACCGU (ssRNA) [AF44 (A22)], the equilibrium dissociation constant (Kd) in data set [3] came to 48 nM; in data set [4], 44 nM.
